The values that follow come from paper PMC6515374, “Virus-Like Particle Facilitated Deposition of Hydroxyapatite Bone Mineral on Nanocellulose after Exposure to Phosphate and Calcium Precursors” (International Journal of Molecular Sciences, 2019).

This data set deals with the molecule itself. Kind of data set: transmission electron microscopy; purified VLPs on carbon coated copper grids, stained with 2% uranyl acetate, 80 kV; also confirmed by atomic force microscopy (Figure S1).

B1: Tobacco mosaic virus coat protein subunit with the E50Q and D77N mutations (assembles into TMV virus-like particles) (natural protein, UniProt P69687 1-159, looked up)
chain: MSYSITTPSQFVFLSSAWADPIELINLCTNALGNQFQTQQARTVVQRQFSQVWKPSPQVTVRFPDSDFKVYRYNAVLNPLVTALLGAFDTRNRIIEVENQANPTTAETLDATRRVDDATVAIRSAINNLIVELIRGTGSYNRSSFESSSGLVWTSGPAT
notes: Tobacco mosaic virus coat protein, codon optimized for bacterial expression, in pET-21a(+) at NdeI/XhoI with a stop codon to prevent fusion to the His tag; No tag: a stop codon stands before the vector's His tag; Assembles without viral RNA into rods of 18 nm diameter and variable length; also called TMV VLPs; TMV CP; source: E. coli BL21(DES)pLysS, purified (chloroform, PEG 8000/NaCl …)
Turning to B1, the binding result is listed as “binds”.
